Details in all cases: both partners purified
In assay [1] the target is T1, Pf41 D1D2 (residues 21-368), untagged (Plasmodium falciparum, UniProt Q8I1Y0).
T1 construct: Pf41, Plasmodium falciparum 6-cysteine protein, residues K21-S368 (D1 with the inserted-domain-like region ID, and D2); lacks the signal peptide and ten C-terminal residues; After TEV cleavage three residues, GAS, remain at the N-terminus as cloning artefacts; N-glycosylation sites kept; treated with PNGase F before crystallisation; also called Pf41 wildtype; source: Spodoptera frugiperda 21 …
Put plainly: BLI; Octet RED96e; nanobodies loaded on NTA sensors; untagged Pf12 or Pf41 (6-200 nM) or their domains in solution; PBS pH 7.4, 0.1% BSA, 0.05% TWEEN-20, 25°C; global 1:1 fit.

Assay [2] concerns the target T2, Pf12 D1D2 (residues 28-304), untagged (Plasmodium falciparum, UniProt C6KSX0).
T2 construct: Pf12, Plasmodium falciparum 6-cysteine protein, residues N28-S304 (domains D1 and D2); lacks the signal peptide and the GPI-anchor site; After TEV cleavage three residues, GAS, remain at the N-terminus as cloning artefacts; N-glycosylation sites kept; treated with PNGase F before crystallisation; also called Pf12 wildtype; source: Spodoptera frugiperda 21 cells, secreted into growth media, …
The assay is described as above.

Assay [3] concerns the target T3, Pf12 D2 (residues E174-S304) (Plasmodium falciparum, UniProt C6KSX0).
T3 construct: Pf12, Plasmodium falciparum, C-terminal 6-cys domain D2, residues E174-S304; also called Pf12 D2 domain; source: Spodoptera frugiperda 21 cells, purified by the same protocol as Pf12 D1D2; not shown: His8, N-terminal, cleaved
Described as above.

For assay [4], the target named is T4, octa-histidine tagged Pf41 D1D2 (residues 21-368) (Plasmodium falciparum, UniProt Q8I1Y0 21-368).
T4 construct: Pf41, Plasmodium falciparum 6-cysteine protein, residues K21-S368; TEV-cleavable tag left on; loaded on NTA sensors; also called tagged wildtype Pf41; source: Spodoptera frugiperda 21 cells, secreted into growth media, purified as tagged protein (Ni-IMAC, SEC); not shown: His8, N-terminal, kept
T4 sequence: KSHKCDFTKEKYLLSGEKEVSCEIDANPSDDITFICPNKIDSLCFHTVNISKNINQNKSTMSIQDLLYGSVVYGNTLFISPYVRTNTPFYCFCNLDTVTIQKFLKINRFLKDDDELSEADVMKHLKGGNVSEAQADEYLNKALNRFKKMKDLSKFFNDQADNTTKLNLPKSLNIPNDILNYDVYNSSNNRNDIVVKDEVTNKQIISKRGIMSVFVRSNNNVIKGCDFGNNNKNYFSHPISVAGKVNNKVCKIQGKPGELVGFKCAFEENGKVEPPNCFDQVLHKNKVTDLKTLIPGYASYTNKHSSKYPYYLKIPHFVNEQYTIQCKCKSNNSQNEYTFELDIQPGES
The experiment in a line: BLI; Octet RED96e; octa-histidine tagged Pf41 loaded on NTA sensors; untagged Pf12 wildtype, mutant or single domain 31-1000 nM; PBS pH 7.4, 0.1% BSA, 0.05% TWEEN-20, 25°C; read-out relative maximum response against wildtype. Background: In BLI a coated tip is dipped into the sample, and binding shifts an interference pattern.

The record followed here is article PMC8930183, “Structure of the Pf12 and Pf41 heterodimeric complex of Plasmodium falciparum 6-cysteine proteins” (FEMS Microbes, 2022).

B1: nanobody B5 (VHH)
VHH: QVQLQESGGGLVQPGGSLRLSCAASGFTLDEYAMGWFRQAPGKEREGISCISSSDGTTFYADSVKGRFTISRDNAKNTVYLQMNSLKPEDTAVYYCATDCVGSYSRYWGQGTQVTVSS
notes: alpaca, immunised with Pf12-Pf41 complex; Pf12-specific; The 'Nb B5 of PDB ID 7KJH' used as a search model may be another nanobody of the same label; source: E. coli WK6, periplasmic extract, purified (HisTrap, SEC)
As usually defined, the Kd is the equilibrium constant for the complex coming apart. In the case of B1, the binding result in assay [1] is “no binding”. Further, the Kd in assay [2] was less than 0.01 nM.

B2: nanobody C9 (VHH)
VHH: QVQLQESGGGLVQPGGSLRLSCAASGFTLDYYAIGWFRQAPGKEREGVSCISSSGGSTYYADSVKGRSTISRDNAKNTVYLQMNSLKPEDTAVYYCATDCLRDYGLEYVPGRYDYWGQGTQVTVSS
notes: alpaca, immunised with Pf12-Pf41 complex; Pf12-specific; source: E. coli WK6, periplasmic extract, purified (HisTrap, SEC)
Regarding B2, in assay [1], the binding result is reported as “no binding”. The same molecule came in with a dissociation constant Kd in assay [2] of less than 0.01 nM.

B3: nanobody H11 (VHH)
VHH: QVQLQESGGGLVQPGGSLRLSCAGSGFTLDHYAIGWFRQAPGKEREGVSCIISSDSSTYYTDSVKGRFTISRDNAKNTVYLQMNSLKPEDTAVYYCATEKIVCASGFIVDYGMDYCGKGTQVTVSS
notes: as for B2
With B3, the binding result is “no binding” in assay [1], “binds” in assay [2] and “binds” in assay [3].

B4: nanobody A10 (VHH)
VHH: QVQLQESGGGFVQPGGSLRLSCAASGFTLDYYFIGWFRQAPGKEREGVSCISSSDGSTYYAESVKGRFTISRDNAKNTVYLQMNSLKPEDTAVYYCATDKIVCSSDFIVDYGMDSRGKGTQVTVSS
notes: as for B2
On to B4, for which, in assay [1], the binding result is “no binding”. The Kd in assay [2] was less than 0.01 nM.

B5: nanobody B11 (VHH)
VHH: QVQLQESGGGLVQAGGSLRLSCAASGRTFSSYAMGWFRQAPGKEREFVAAISWNGGRTYYADSVKGRFTISRDNAKNTVYLQMNSLKPEDTAVYYCAADPTGTVDDETGIYVYWGQGTQVTVSS
notes: as for B2
On to B5, for which the figures for the binding result in assay [1], in assay [2] and in assay [3] were “no binding”, “binds” and “binds”, respectively.

B6: nanobody C12 (VHH)
VHH: QVQLQESGGGLVQAGGSLRLSCAASGRTFSSYSMGWFRQAPGKQRELVAAISSGGSTDYTDSVKGRFTISRDNAKNTVYLQMNSLKPEDTAVYYCAAGDYSDYVGMWDIWGQGTQVTVSS
notes: as for B2
In the case of B6, the binding result is reported as “no binding” in assay [1], “binds” in assay [2] and “binds” in assay [3].

B7: nanobody C1 (VHH)
VHH: QVQLQESGGGLVQPGASLRLSCTVSGIIMADHAIGWFRQAPGKEREGIACFIRSDGTTYYSDSAKGRFTISRDNAKNTVYLQMNSLKPEDTADYYCATGKIVCANGFIVDYGSDYRGKGTQVTVSS
notes: as for B2
In the case of B7, the binding result in assay [1] is given as “no binding”; in assay [2], “binds”; in assay [3], “binds”.

B8: nanobody D12 (VHH)
VHH: QVQLQESGGGLVEAGGSLRLSCAASTRTFSSLVMGWFRQAPGKERELVAAISRSGDSTDYTDSVKGRFTISRDNAKNTVYLQMNSLKPEDTAVYSCAADPTGVDSSLAVGLWVYWGQGTQVTVSS
notes: as for B2
Turning to B8, the figures for the binding result in assay [1], in assay [2] and in assay [3] were “no binding”, “binds” and “binds”, respectively.

B9: Pf12 D1D2 F241L (domain or fragment)
chain: NLTCDFNDVYKLEFHPNQQTSVTKLCNLTPNVLEKVTIKCGSDKLNYNLYPPTCFEEVYASRNMMHLKKIKEFVIGSSMFMRRSLTPNKINEVSFRIPPNMMPEKPIYCFCENKKTITINGSNGNPSSKKDIINRGIVEIIIPSLNEKVKGCDFTTSESTIFSKGYSINEISNKSSNNQQDIVCTVKAHANDLIGFKCPSNYSVEPHDCFVSALNLSGKNENLENKLKLTNIIMDHYNNTFYSRLPSLISDNWKFFCVCSKDNEKKLVFTVEASISS
notes: Pf12, Plasmodium falciparum, residues N28-S304 (D1D2); source: Spodoptera frugiperda 21 cells, purified (Ni-IMAC, TEV cleavage, SEC); not shown: His8, N-terminal, cleaved
With B9, the binding result in assay [4] is on record as “binds”.

B10: Pf12 D1D2 M106A (domain or fragment)
chain: NLTCDFNDVYKLEFHPNQQTSVTKLCNLTPNVLEKVTIKCGSDKLNYNLYPPTCFEEVYASRNMMHLKKIKEFVIGSSAFMRRSLTPNKINEVSFRIPPNMMPEKPIYCFCENKKTITINGSNGNPSSKKDIINRGIVEIIIPSLNEKVKGCDFTTSESTIFSKGYSINEISNKSSNNQQDIVCTVKAHANDLIGFKCPSNYSVEPHDCFVSAFNLSGKNENLENKLKLTNIIMDHYNNTFYSRLPSLISDNWKFFCVCSKDNEKKLVFTVEASISS
notes: as for B9
As to B10, in assay [4], the binding result is “binds”.

B11: Pf12 D1D2 R110A (domain or fragment)
chain: NLTCDFNDVYKLEFHPNQQTSVTKLCNLTPNVLEKVTIKCGSDKLNYNLYPPTCFEEVYASRNMMHLKKIKEFVIGSSMFMRASLTPNKINEVSFRIPPNMMPEKPIYCFCENKKTITINGSNGNPSSKKDIINRGIVEIIIPSLNEKVKGCDFTTSESTIFSKGYSINEISNKSSNNQQDIVCTVKAHANDLIGFKCPSNYSVEPHDCFVSAFNLSGKNENLENKLKLTNIIMDHYNNTFYSRLPSLISDNWKFFCVCSKDNEKKLVFTVEASISS
notes: as for B9
For the molecule B11, in assay [4], the binding result is on record as “binds”.

B12: Pf12 D1D2 H234A (domain or fragment)
chain: NLTCDFNDVYKLEFHPNQQTSVTKLCNLTPNVLEKVTIKCGSDKLNYNLYPPTCFEEVYASRNMMHLKKIKEFVIGSSMFMRRSLTPNKINEVSFRIPPNMMPEKPIYCFCENKKTITINGSNGNPSSKKDIINRGIVEIIIPSLNEKVKGCDFTTSESTIFSKGYSINEISNKSSNNQQDIVCTVKAHANDLIGFKCPSNYSVEPADCFVSAFNLSGKNENLENKLKLTNIIMDHYNNTFYSRLPSLISDNWKFFCVCSKDNEKKLVFTVEASISS
notes: as for B9
Consider B12, for which the binding result in assay [4] is on record as “binds”.

B13: Pf12 D1D2 R109A (domain or fragment)
chain: NLTCDFNDVYKLEFHPNQQTSVTKLCNLTPNVLEKVTIKCGSDKLNYNLYPPTCFEEVYASRNMMHLKKIKEFVIGSSMFMARSLTPNKINEVSFRIPPNMMPEKPIYCFCENKKTITINGSNGNPSSKKDIINRGIVEIIIPSLNEKVKGCDFTTSESTIFSKGYSINEISNKSSNNQQDIVCTVKAHANDLIGFKCPSNYSVEPHDCFVSAFNLSGKNENLENKLKLTNIIMDHYNNTFYSRLPSLISDNWKFFCVCSKDNEKKLVFTVEASISS
notes: as for B9
Turning to B13, the binding result in assay [4] is “binds”.

B14: Pf12 D1D2 R123A (domain or fragment)
chain: NLTCDFNDVYKLEFHPNQQTSVTKLCNLTPNVLEKVTIKCGSDKLNYNLYPPTCFEEVYASRNMMHLKKIKEFVIGSSMFMRRSLTPNKINEVSFAIPPNMMPEKPIYCFCENKKTITINGSNGNPSSKKDIINRGIVEIIIPSLNEKVKGCDFTTSESTIFSKGYSINEISNKSSNNQQDIVCTVKAHANDLIGFKCPSNYSVEPHDCFVSAFNLSGKNENLENKLKLTNIIMDHYNNTFYSRLPSLISDNWKFFCVCSKDNEKKLVFTVEASISS
notes: as for B9
Take B14: the binding result in assay [4] was “binds”.

B15: Pf12 D1D2 M108A (domain or fragment)
chain: NLTCDFNDVYKLEFHPNQQTSVTKLCNLTPNVLEKVTIKCGSDKLNYNLYPPTCFEEVYASRNMMHLKKIKEFVIGSSMFARRSLTPNKINEVSFRIPPNMMPEKPIYCFCENKKTITINGSNGNPSSKKDIINRGIVEIIIPSLNEKVKGCDFTTSESTIFSKGYSINEISNKSSNNQQDIVCTVKAHANDLIGFKCPSNYSVEPHDCFVSAFNLSGKNENLENKLKLTNIIMDHYNNTFYSRLPSLISDNWKFFCVCSKDNEKKLVFTVEASISS
notes: as for B9
For the molecule B15, the binding result in assay [4] was “binds”.
